# Laboratory results: IntAct's records for PubMed 11250154
# B1: Virulence protein F (Agrobacterium tumefaciens (strain 15955)), P15597 (parent)
# chain: MRNSSLRDASGSNDAQVPHKTELLNLPDHVLTEVAKRLATNNPVESAENIANFSKSHRFTRDAVRTEPLEKFSSRLKILSRNAKLLSHAVRHAATLPDGEQLSEAQLSQMRSEVATRPVLGVAYTHQDGQPEERLSGNHLDHKINNIPNLVFNVAEPIMFNEISALEVMAEVRPIARSIKTAHDDARAELMSADRPRSTRGL
# Variants of: B1
# Settings: with skp1a_arath SKP1A
row,Variant,effect of a mutation on the interaction
1,MRNSSLRDASGSNDAQVPHKTELLNAADHVLTEVAKRLATNNPVESAENIANFSKSHRFTRDAVRTEPLEKFSSRLKILSRNAKLLSHAVRHAATLPDGEQLSEAQLSQMRSEVATRPVLGVAYTHQDGQPEERLSGNHLDHKINNIPNLVFNVAEPIMFNEISALEVMAEVRPIARSIKTAHDDARAELMSADRPRSTRGL [L26A;P27A],decreasing interaction strength

# Variants of: B1
# Settings: with skp1b_arath SKP1B
row,Variant,effect of a mutation on the interaction
1,MRNSSLRDASGSNDAQVPHKTELLNAADHVLTEVAKRLATNNPVESAENIANFSKSHRFTRDAVRTEPLEKFSSRLKILSRNAKLLSHAVRHAATLPDGEQLSEAQLSQMRSEVATRPVLGVAYTHQDGQPEERLSGNHLDHKINNIPNLVFNVAEPIMFNEISALEVMAEVRPIARSIKTAHDDARAELMSADRPRSTRGL [L26A;P27A],decreasing interaction strength
